Here are results for 1 substance from patent publication US20070274969A1.

In experiment [1] the target is human Bub1, endogenous (human) (UniProt O43683). As to the kind of experiment: cell-based or functional assay.
Experiment [2] has as its target rat Bub1, endogenous (rat). Put plainly: cell-based or functional assay.

human Bub1, endogenous (human), sequence (O43683 whole entry): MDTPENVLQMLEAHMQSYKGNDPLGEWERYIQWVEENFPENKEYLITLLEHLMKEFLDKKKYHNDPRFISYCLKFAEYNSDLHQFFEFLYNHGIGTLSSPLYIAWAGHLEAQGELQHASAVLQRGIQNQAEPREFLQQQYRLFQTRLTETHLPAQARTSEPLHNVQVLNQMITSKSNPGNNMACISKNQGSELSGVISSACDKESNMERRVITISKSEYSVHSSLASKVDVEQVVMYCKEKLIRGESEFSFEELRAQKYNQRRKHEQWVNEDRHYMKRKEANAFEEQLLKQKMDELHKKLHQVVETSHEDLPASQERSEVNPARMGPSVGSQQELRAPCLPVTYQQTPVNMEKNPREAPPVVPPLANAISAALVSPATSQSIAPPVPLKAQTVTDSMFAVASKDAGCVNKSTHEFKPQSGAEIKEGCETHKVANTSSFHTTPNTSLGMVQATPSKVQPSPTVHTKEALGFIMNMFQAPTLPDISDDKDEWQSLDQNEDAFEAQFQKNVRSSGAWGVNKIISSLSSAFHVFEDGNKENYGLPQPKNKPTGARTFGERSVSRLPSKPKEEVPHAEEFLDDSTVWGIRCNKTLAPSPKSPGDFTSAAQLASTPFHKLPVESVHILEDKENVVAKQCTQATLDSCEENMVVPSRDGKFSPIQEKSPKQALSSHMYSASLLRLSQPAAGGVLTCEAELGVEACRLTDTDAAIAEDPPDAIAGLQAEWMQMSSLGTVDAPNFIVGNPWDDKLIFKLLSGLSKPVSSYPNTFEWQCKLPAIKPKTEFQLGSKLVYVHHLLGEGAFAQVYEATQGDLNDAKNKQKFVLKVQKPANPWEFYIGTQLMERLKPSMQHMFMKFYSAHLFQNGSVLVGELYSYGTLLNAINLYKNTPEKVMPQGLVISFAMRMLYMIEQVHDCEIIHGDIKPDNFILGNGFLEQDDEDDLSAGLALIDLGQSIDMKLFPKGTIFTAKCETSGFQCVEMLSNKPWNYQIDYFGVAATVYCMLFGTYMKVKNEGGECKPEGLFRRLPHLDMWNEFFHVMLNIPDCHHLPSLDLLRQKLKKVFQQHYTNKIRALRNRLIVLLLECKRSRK

Turning to “SV40 large T antigen, wild-type (from UniProt P03070 1-708)”, in experiment [1], the % > 4N cells (endoreduplication), 100 ng/ml nocodazole was 45.7% and the mitotic index (phospho-histone H3 positive cells), nocodazole for 15 hours is 14.6%. In experiment [2], this substance had a cells that proceed to anaphase at 24 ng/ml nocodazole, time-lapse microscopy of immortalized rat embryo fibroblasts of 90%.
